Patent publication US20090136503A1 (BEIJING COTIMES BIOTECH, published 2009)

Columns and labels:
[1] = target: T1, TRAIL-R2 on the surface of human tumor cells (human, UniProt O14763 56-440); experiment: flow cytometry on Jurkat cells (said to express TRAIL-R2 only, not TRAIL-R1), PE goat anti-mouse IgG1
T1 construct: whole, on cells; also called DR5; CD262

[2] = target: Human IgG1 (control antigen) (human); experiment: ELISA; human IgG1 captured on goat anti-human IgG, antibody at 2 µg/ml
[3] = target: T2, TRAIL-R3-Fc fusion protein (human, UniProt O14798 26-221, limits assumed); experiment: ELISA: plate coated with TRAIL-R3-Fc at 1 µg/ml, HRP goat anti-mouse IgG, TMB
T2 construct: The origin of the protein is not described; also called TRAIL-R3-Fc fusion antigen; not shown: human IgG1 Fc
T2 sequence (looked up): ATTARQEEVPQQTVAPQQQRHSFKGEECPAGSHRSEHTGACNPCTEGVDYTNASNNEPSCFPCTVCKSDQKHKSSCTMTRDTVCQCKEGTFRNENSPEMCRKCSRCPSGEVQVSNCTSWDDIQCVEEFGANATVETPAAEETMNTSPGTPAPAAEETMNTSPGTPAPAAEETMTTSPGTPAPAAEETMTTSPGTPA

[4] = target: BSA (bovine serum albumin), negative control (bovine, UniProt P02769 25-607); experiment: ELISA: plate coated with BSA (control) at 1 µg/ml, HRP goat anti-mouse IgG, TMB
[5] = target: T3, TRAIL-R4-Fc fusion protein (human, UniProt Q9UBN6 56-211); experiment: ELISA: plate coated with TRAIL-R4-Fc at 1 µg/ml, HRP goat anti-mouse IgG, TMB
T3 construct: The origin of the protein is not described; also called TRAIL-R4-Fc fusion antigen; not shown: human IgG1 Fc
T3 sequence (looked up): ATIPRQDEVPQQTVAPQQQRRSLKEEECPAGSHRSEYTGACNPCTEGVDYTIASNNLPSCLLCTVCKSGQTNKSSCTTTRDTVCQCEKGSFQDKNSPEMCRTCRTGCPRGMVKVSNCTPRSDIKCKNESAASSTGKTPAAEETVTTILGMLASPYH

[6] = target: TRAIL-R1 on the surface of human tumor cells (human, UniProt O00220 24-468); experiment: cell-based or functional assay

Sequence of BSA (bovine serum albumin), negative control (P02769 25-607 limits assumed): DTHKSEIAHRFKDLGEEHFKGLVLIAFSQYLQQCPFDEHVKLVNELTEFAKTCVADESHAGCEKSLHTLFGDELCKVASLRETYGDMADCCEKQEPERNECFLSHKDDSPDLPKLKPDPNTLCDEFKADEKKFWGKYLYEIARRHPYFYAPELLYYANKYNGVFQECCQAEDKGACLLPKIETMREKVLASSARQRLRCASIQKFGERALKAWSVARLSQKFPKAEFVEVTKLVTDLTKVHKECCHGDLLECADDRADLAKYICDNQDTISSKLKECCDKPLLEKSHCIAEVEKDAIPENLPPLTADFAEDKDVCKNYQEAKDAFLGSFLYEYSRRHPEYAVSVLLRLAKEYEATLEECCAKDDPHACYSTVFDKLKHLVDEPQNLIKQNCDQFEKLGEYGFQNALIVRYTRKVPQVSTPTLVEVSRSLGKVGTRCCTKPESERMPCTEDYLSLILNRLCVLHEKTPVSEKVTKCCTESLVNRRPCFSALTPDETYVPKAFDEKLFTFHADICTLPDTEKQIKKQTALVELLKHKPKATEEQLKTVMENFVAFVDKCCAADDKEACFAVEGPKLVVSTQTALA

B1: CTB007 murine monoclonal antibody against TRAIL-R1 (hybridoma CGMCC 1733) (antibody, V domains shown)
VH: EVQLQQSGAELVKPGASVKLSCTASGFNIKDTYMHWVKQRPEQGLEWIGRIDPANGNTKYDPKFQGKATITADTSSNTAYLQLSSLTSEDTAVYYCAYYYVSNAWFTYWGQGTLVTVSA
VL: DIQMTQSPASLSVSVGETVTITCRASENIYSNLEWYQQKQGKSPQLLVYAATNLADGVPSRFSGSGSGTQYSLKINSLQSEDFGSYYCQHFWGTWTFGGGTKLEIK
notes: Murine monoclonal antibody; also called Anti-TRAIL-R1 (CTB007); CTB007-HRP
binding result [1]: no binding
OD 450 nm/650 nm [2]: 0.026 OD
binding result [3]: no binding (tested: 1000 ng/ml)
binding result [4]: no binding (tested: 1000 ng/ml)
binding result [5]: no binding (tested: 1000 ng/ml)
IC50 (ng/ml), killing of Carov 3 cells, ATPLite cell viability [6]: 29.5 ng/mL
IC50 (ng/ml), killing of Colo205 cells, ATPLite cell viability [6]: 6.2 ng/mL
IC50 (ng/ml), killing of Du145 cells, ATPLite cell viability [6]: 31.2 ng/mL
IC50 (ng/ml), killing of H-2122 cells, ATPLite cell viability [6]: 25.4 ng/mL
IC50 (ng/ml), killing of MDA231 cells, ATPLite cell viability [6]: 8.2 ng/mL
IC50 (ng/ml), killing of MIAcap cells, ATPLite cell viability [6]: 9.5 ng/mL
